B1: Subtilisin-chymotrypsin inhibitor-2A, P01053 (parent)
chain: MSSVEKKPEGVNTGAGDRHNLKTEWPELVGKSVEEAKKVILQDKPEAQIIVLPVGTIVTMEYRIDRVRLFVDKLDNIAQVPRVG

Variants of: B1
Details: Hordeum vulgare; pH 6.25; 25 °C; GdnHCl; Fluorescence; MES 50 mM; reversible: yes; structure 2CI2; whole UniProt chain shown

Variant	ddG of mutation (higher = less stable) [kcal/mol]	denaturant m value [kcal/mol/M]	denaturant midpoint (higher = more stable) [M]	unfolding free energy [kcal/mol]
MSSVEKKPEGVNTGAGDRHNLKTEWPELVGKSVEEAKKVILQDKPEAQIIVLPVGTIVTMAYRIDRVRLFVDKLDNIAQVPRVG	1.12	1.78	3.64	6.48
MSSVEKKPEGVNTGAGDRHNLKTEWPELVGKSVEEAKKVILQDKPEAQIIVLPVGTIVTMEYAIARVRLFVDKLDNIAQVPRVG	2.46	1.53	3.37	5.14
MSSVEKKPEGVNTGAGDRHNLKTEWPELVGKSVEEAKKVILQDKPEAQIIVLPVGTIVTMEYRIDRVRLFVDKLDNIAQVARVG	3.5	1.8	2.28	4.1
MSSVEKKPEGVNTGAGDRHNLKTEWPELVGKSVEEAKKVILQDKPEAQIIVLPVGTIVTMEYRIDRVRLFVAKLDNIAQVPRVG	3.14	1.99	2.24	4.46
MSSVEKKPEGVNTGAGDRHNLKTEWAELVGKSVEEAKKVILQDKPEAQIIVLPVGTIVTMEYRIDRVRLFVDKLDNIAQVPRVG	–	3.46	3.19	–
MSSVEKKPEGVNTGAGDRHNLKTEWPELVGKSVEEAKKVILQDKPEAQIIVLPVGTIVTMEYRIARVRLFVDKLDNIAQVPRVG	1.02	1.83	3.59	6.58
MSSVEKKPEGVNTGAGDRHNLKTEWPELVGKSVEEAKKVILQDKPEAQIIVLPVGTIVTMEYRIDRVRLAVDKLDNIAQVPRVG	3.21	2.17	2.02	4.39
MSSVEKKPEGVNTGAGDRHNLKTEWPELVGKSVEEAKKVILQDKPEAQIIVLPVGTIVTMEYRIDRVRLLVDKLDNIAQVPRVG	1.92	1.95	2.91	5.68
MSSVEKKPEGVNTGAGDRHNLKTEWPELVGKSVEEAKKVILQDKPEAQIIVLPVGTIVTMEYRIDRVRLVVDKLDNIAQVPRVG	1.41	2.24	2.77	6.19
MSSVEKKPEGVNTGAGDRHNLKTEWPELVGKSVEEAKKVILQDKPEAQIIVLPVGTIVTMEYAIDRVRLFVDKLDNIAQVPRVG	1.02	1.78	3.7	6.58
MSSVEKKPEGVNTGAGDRHNLKTEWPELVGKSVEEAKKVILQDKPEAQIIVLPVGTIVTMEYRIDRVRLFVDNLDNIAQVPRVG	1.21	1.6	4	6.39
